Measurements published in patent publication US20260167721A1 (ABLEXIS, published 2026).

Legend:
[1] = target: T1, recombinant human CD3 epsilon/delta heterodimer (human, UniProt P07766 23-126; P04234 22-105); test: BLI (Octet), mAb 5 ug/mL on FAB2G sensor, hCD3 E/D 200-50 nM
T1 construct: Recombinant heterodimer used as analyte in Octet; also called hCD3 E/D; human CD3E/D

[2] = target: T2, recombinant human CD3 epsilon/gamma heterodimer (human, UniProt P07766 23-126; P09693 23-116); test: BLI (Octet), mAb 5 ug/mL on FAB2G sensor, hCD3 E/G 200-50 nM;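 also: antibodies purified from hybridoma supernatants, measured by Octet binding to recombinant human CD3 protein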
T2 construct: Recombinant heterodimer used as analyte in Octet; also called hCD3 E/G
T2 sequence (P07766 23-126, chain 1 of 2): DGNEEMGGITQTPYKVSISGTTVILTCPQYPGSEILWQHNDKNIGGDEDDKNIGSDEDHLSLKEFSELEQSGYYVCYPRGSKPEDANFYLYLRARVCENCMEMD
T2 sequence (P09693 23-116, chain 2 of 2): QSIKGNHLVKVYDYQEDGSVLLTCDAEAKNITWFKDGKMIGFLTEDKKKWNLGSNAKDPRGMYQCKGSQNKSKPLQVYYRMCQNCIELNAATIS

[3] = target: T3, human CD3 (on human Pan-T cells or donor PBMC) (human, UniProt P07766 23-207; P04234 22-171; P09693 23-182; P20963 22-164); test: cell-based or functional assay
T3 sequence (P07766 23-207, chain 1 of 4): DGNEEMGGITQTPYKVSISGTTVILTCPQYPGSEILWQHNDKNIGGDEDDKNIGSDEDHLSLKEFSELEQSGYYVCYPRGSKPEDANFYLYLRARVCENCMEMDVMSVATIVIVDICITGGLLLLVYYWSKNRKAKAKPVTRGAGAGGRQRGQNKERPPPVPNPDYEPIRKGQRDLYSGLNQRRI
T3 sequence (P04234 22-171, chain 2 of 4): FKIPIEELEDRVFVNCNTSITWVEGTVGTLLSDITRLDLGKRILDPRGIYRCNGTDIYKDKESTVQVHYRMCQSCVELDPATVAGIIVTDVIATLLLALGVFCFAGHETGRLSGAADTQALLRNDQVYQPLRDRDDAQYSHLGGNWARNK
T3 sequence (P09693 23-182, chain 3 of 4): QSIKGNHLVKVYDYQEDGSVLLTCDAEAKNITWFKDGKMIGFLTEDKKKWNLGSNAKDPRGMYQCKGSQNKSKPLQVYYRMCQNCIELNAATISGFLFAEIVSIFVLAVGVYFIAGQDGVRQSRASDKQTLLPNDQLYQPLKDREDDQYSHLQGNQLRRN
T3 sequence (P20963 22-164, chain 4 of 4): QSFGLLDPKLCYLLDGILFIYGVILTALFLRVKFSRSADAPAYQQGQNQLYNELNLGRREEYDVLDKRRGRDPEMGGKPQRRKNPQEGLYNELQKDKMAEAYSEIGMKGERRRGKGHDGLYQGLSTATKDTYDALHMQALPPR

[4] = target: T3, human CD3 (on human Pan-T cells or …); test: cell-based or functional assay; remark: listed apart in the source

T1 sequence (P07766 23-126, stated change not applied, chain 1 of 2): as the sequence (P07766 23-126, chain 1 of 2) above
T1 sequence (P04234 22-105, stated change not applied, chain 2 of 2): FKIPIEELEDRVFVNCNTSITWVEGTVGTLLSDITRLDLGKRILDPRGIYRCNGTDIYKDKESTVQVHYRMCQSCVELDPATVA

B1: ABL-CD3-68 (antibody, V domains shown)
VH: EVQLVESGGGLVKPGGSLRLSCAASGFTFSSSIMNWVRQAPGKGLEWVSSISGSSSYIYYADSVKGRFTISRDNAKNSQYLQMKSLRAEDTAVYYCARERWNLLYFDYWGQGTLVTVSS
VL: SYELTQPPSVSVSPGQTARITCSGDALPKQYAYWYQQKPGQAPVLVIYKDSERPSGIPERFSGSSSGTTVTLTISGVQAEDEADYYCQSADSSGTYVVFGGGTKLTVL
notes: mAb purified from hybridoma; chimeric AlivaMab IgG (human VH, CH1 and upper hinge; mouse middle hinge, CH2, CH3; human light chain)
Kd [1]: 4.2 nM
Response [1]: 0.3
koff [1]: 0.000973 s⁻¹
kon [1]: 232000 M⁻¹ s⁻¹
Kd [2]: 6.43 nM
Response [2]: 0.28
koff [2]: 0.00157 s⁻¹
kon [2]: 244000 M⁻¹ s⁻¹

B2: ABL-CD3-65 (antibody, V domains shown)
VH: QVQLQQWGAGLLKPSETLSLTCAVYGGSFSGYYWSWIRQPPGKGLEWIGEINHSGSTNYNPSLKSRVTISVDTSKNQFSLKLSSVTAADTAVYYCAREYYYYGMDVWGQGTTVTVSS
VL: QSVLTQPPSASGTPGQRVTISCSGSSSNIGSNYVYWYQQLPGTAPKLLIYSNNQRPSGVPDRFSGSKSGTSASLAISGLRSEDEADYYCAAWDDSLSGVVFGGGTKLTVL
notes: as for B1
Kd [1]: 22.7 nM
Response [1]: 0.01
koff [1]: 0.00643 s⁻¹
kon [1]: 283000 M⁻¹ s⁻¹
Kd [2]: 18.7 nM
Response [2]: 0.01
koff [2]: 0.00174 s⁻¹
kon [2]: 93200 M⁻¹ s⁻¹

B3: ABL-CD3-64 (antibody, V domains shown)
VH: EVQVAESGGGLVKPGGSLRLSCAASGFTFSRYSMNWVRQAPGKGLEWVSSISSSGSYTYYADSVKGRFTISRDNAKNSLYLQMNSLRAEDTAVYYCVRERGKGAGMDVWGQGTTVTVSS
VL: NFMLTQPHSVSESPGKTVTISCTRSSGSIASNYVQWYQQRPGSSPTTVIYEDNQRPSGVPDRFSGSIDSSSNSASLTISGLKTEDEADYYCQSYDSSNRVFGGGTKLTVL
notes: as for B1
Kd [1]: 31.6 nM
Response [1]: 0.68
koff [1]: 0.0054 s⁻¹
kon [1]: 171000 M⁻¹ s⁻¹
Kd [2]: 71.9 nM
Response [2]: 0.46
koff [2]: 0.013 s⁻¹
kon [2]: 180000 M⁻¹ s⁻¹

B4: ABL-CD3-70 (antibody, V domains shown)
VH: EVQLVESGGGLVKPGGSLRLSCAASGFTFSTYIMNWVRQAPGKGLEWVSSITSSSSYIYYADSVKGRFTISRDNAKNSLYLQMNSLRAEDTAVYYCAREKWELLFFDYWGQGTLVTVSS
VL: NFMLTQPHSVSESPGKTVTISCTRSSGSIASNYVQWYQQRPGSSPTTVIYEDNQRPSGVPDRFSGSIDSSSNSASLTISGLKTEDEADYYCQSYDSSNRVFGGGTKLTVL
notes: as for B1
Kd [1]: 47.1 nM
Response [1]: 0.26
koff [1]: 0.0101 s⁻¹
kon [1]: 214000 M⁻¹ s⁻¹
Kd [2]: 4.87 nM
Response [2]: 0.11
koff [2]: 0.00339 s⁻¹
kon [2]: 697000 M⁻¹ s⁻¹

B5: ABL-CD3-69 (antibody, V domains shown)
VH: EVQLVESGGGLVKPGGSLRLSCAASGFTFSTYTMNWVRQAPGKGLEWVSTITSSSRYIYYADSVKGRFTISRDNAKNSLYLQMNSLRAEDTAVYYCARVTFDAFDIWGQGTMVTVSS
VL: NFMLTQPHSVSESPGKTVTISCTRSSGSIASNYVQWYQQRPGSSPTTVIYEDNQRPSGVPDRFSGSIDSSSNSASLTISGLKTEDEADYYCQSYDSSNRVFGGGTKLTVL
notes: as for B1
Kd [1]: 8.14 nM
Response [1]: 0.87
koff [1]: 0.000851 s⁻¹
kon [1]: 105000 M⁻¹ s⁻¹
Kd [2]: 3.73 nM
Response [2]: 0.88
koff [2]: 0.000321 s⁻¹
kon [2]: 86100 M⁻¹ s⁻¹

B6: ABL-CD3-66 (antibody, V domains shown)
VH: QVQLQESGPGLVKPSETLSLTCTVSGGSISSYYWSWIRQPAGKGLEWIGRIYASGSTYYNPSLKSRVTMSVDTSKNQFSLKLSSVTAADTAVYYCAREKRSRLYFDYWGQGTLVTVSS
VL: NFMLTQPHSVSESPGKTVTISCTRSSGSIASNYVQWYQQRPGSSPTTVIYEDNQRPSGVPDRFSGSIDSSSNSASLTISGLKTEDEGDYYCQSYDRSNRVFGGGTKLTVL
notes: as for B1
Kd [1]: 78.2 nM
Response [1]: 0.41
koff [1]: 0.0266 s⁻¹
kon [1]: 341000 M⁻¹ s⁻¹
Kd [2]: 92.8 nM
Response [2]: 0.09
koff [2]: 0.0856 s⁻¹
kon [2]: 923000 M⁻¹ s⁻¹

B7: ABL-CD3-78 (antibody, V domains shown)
VH: EVQLVESGGGLVKPGGSLRLSCAASGFTVSNYSMNWVRQAPGKGLEWVSCISRSSSYIYYADSVKGRFTISRDNAKNSLFLQMNSLRAEDTAVYYCARERWELLYFDYWGQGTLVTVSS
VL: NFMLTQPHSVSESPGKTVTISCTRSSGSIASNYVQWYQQRPGSSPTTVIYEDNQRPSGVPDRFSGSIDSSSNSASLTISGLKTEDEADYYCQSFDGSNRVFGGGTKLTVL
notes: as for B1
Kd [1]: 6.64 nM
Response [1]: 0.56
koff [1]: 0.000568 s⁻¹
kon [1]: 85600 M⁻¹ s⁻¹
Kd [2]: 21.4 nM
Response [2]: 0.5
koff [2]: 0.00157 s⁻¹
kon [2]: 73500 M⁻¹ s⁻¹

B8: ABL-CD3-87 (antibody, V domains shown)
VH: EVQLVESGGGLVKFGGSLRLSCAASGFTFSRYSMNWVRQAPGKGLEWVSSISSSSSYKYYADSVKGRFTISRDNAKNSLYLQMNSLRAEDTAVYYCAREGGNSHGMDVWGQGTTVTVSS
VL: NFMLTQPHSVSESPGKTVTISCTRSSGSIASNYVQWYQQRPGSSPTTVIYEDNQRPSGVPDRFSGSIDSSSNSASLTISGLKTEDEADYYCQSYDSSNRVFGGGTKLTVL
notes: as for B1
Kd [1]: 69 nM
Response [1]: 0.0358
koff [1]: 0.0166 s⁻¹
kon [1]: 240000 M⁻¹ s⁻¹
Kd [2]: 131 nM
Response [2]: 0.36
koff [2]: 0.0279 s⁻¹
kon [2]: 214000 M⁻¹ s⁻¹

B9: ABL-CD3-72 (antibody, V domains shown)
VH: EVQLVESGGGLVKPGGSLRLSCAASGFTFSTYIMNWVRQAPGKGLEWVSSISSSRSYIYYADSVKGRFTISRDNAKNSLYLQMNSLRAEDTAVYYCAREDRYRLFFDYWGQGTLVTVSS
VL: NFMLTQPHSVSESPGKTVTISCTRSSGSIASNYVQWYQQRPGSSPTTVIYEDNQRPSGVPDRFSGSIDSSSNSASLTISGLKTEDEADYYCQSYDSSNRVFGGGTKLTVL
notes: as for B1
Kd [1]: 109 nM
Response [1]: 0.17
koff [1]: 0.07 s⁻¹
kon [1]: 641000 M⁻¹ s⁻¹
Kd [2]: 442 nM
Response [2]: 0.09
koff [2]: 0.211 s⁻¹
kon [2]: 476000 M⁻¹ s⁻¹

B10: ABL-CD3-67 (antibody, V domains shown)
VH: EVQLVESGGGLVKPGGSLRLSCAASGFTVSSYSMNWVRQAPGKGLEWVSSISRSSSYIYYADSVKGRFTISRDNAKNSLFLQMNSLRAEDTAVYYCARERWELLYFDYWGQGTLVTVSS
VL: NFMLTQPHSVSESPGKTVTISCTRSSGSIASNYVQWYRQRPGSSPTTVIYEDNQRPSGVPDRFSGAIDSSSTSASLTISGLKTEDEADYYCQSYDSSNRVFGGGTKLTVL
notes: as for B1
Kd [1]: 53.3 nM
Response [1]: 0.58
koff [1]: 0.00485 s⁻¹
kon [1]: 90800 M⁻¹ s⁻¹
Kd [2]: 109 nM
Response [2]: 0.26
koff [2]: 0.0178 s⁻¹
kon [2]: 163000 M⁻¹ s⁻¹

B11: ABL-CD3-71 (antibody, V domains shown)
VH: QVQLQESGPGLVKPSETLSLTCTVSGGSINSYYWSWIRQPAGKGLEWIGRIYTSGSTNYNPSLKSRVTMSVDTSKKQFSLKLSSVTAADTAVYYCARERISRLYFDYWGQGILVTVSS
VL: NFMLTQPHSVSESPGKTVTISCTRSSGSIASNYVQWYQQRPGSSPTTVIYEDNQRPSGVPDRFSGSIDSSSNSASLTISGLKTEDEADYYCQSYDRSNRVFGGGTKLTVL
notes: as for B1
Kd [1]: 58.8 nM
Response [1]: 0.48
koff [1]: 0.0102 s⁻¹
kon [1]: 173000 M⁻¹ s⁻¹
Kd [2]: 55 nM
Response [2]: 0.11
koff [2]: 0.0329 s⁻¹
kon [2]: 598000 M⁻¹ s⁻¹

B12: ABL-CD3-84 (antibody, V domains shown)
VH: EVQLVESGGGLVKPGGSLRLSCAASGFTFSNFIMNWVRQAPGKGLEWVSSISGSSNYIYYADSVKGRFTISGDNAKNSLYLQMNSLRAEDTAVYYCAREKWVLLFFDYWGQGTLVTVSS
VL: NFMLTQPHSVSESPGKTVTISCTRSSGSIASNYVQWYQQRPGSSPTTMIYEDTQRPSGVPDRFSGSIDSSSNSASLTISGLKTEDEADYYCQSYDSSNRVFGGGTKLTVL
notes: as for B1
Kd [1]: 143 nM
Response [1]: 0.22
koff [1]: 0.0203 s⁻¹
kon [1]: 142000 M⁻¹ s⁻¹
Kd [2]: 145 nM
Response [2]: 0.1
koff [2]: 0.0614 s⁻¹
kon [2]: 424000 M⁻¹ s⁻¹

B13: CD3 × CD33-BspAb72 (bispecific antibody)
chain 1: EVQLVESGGGLVQPGGSLRLSCAASGFTFSSYSMNWVRQAPGKCLEWVSYISSSSSTIYYADSVKGRFTISRDNAKNSLYLQMNSLRDEDTAVYYCARDGPVDYGMDVWGQGTTVTVSSGGGGSGGGGSGGGGSGGGGSSYELTQPPSVSVSPGQTARITCSGDALPKQYTYWYQQKPGQAPVLVIYKDSERPSGIPERFSGSSSGTTVTLTISGVQAEDEADYYCQSADSSGTYRVFGCGTKLTVLDKTHTCPPCPAPEFEGGPSVFLFPPKPKDTLMISRTPEVTCVVVDVSHEDPEVKFNWYVDGVEVHNAKTKPREEQYNSTYRVVSVLTVLHQDWLNGKEYKCKVSNKALPASIEKTISKAKGQPREPQVYTLPPCREEMTKNQVSLWCLVKGFYPSDIAVEWESNGQPENNYKTTPPVLDSDGSFFLYSKLTVDKSRWQQGNVFSCSVMHEALHNHYTQKSLSLSPGK
chain 2: EVQLVQSGAEVKKPGSSVKVSCKASGYTITDSNIHWVRQAPGQSLEWIGYIYPYNGGTDYNQKFKNRATLTVDNPTNTAYMELSSLRSEDTAFYYCVNGNPWLAYWGQGTLVTVSSASTKGPSVFPLAPSSKSTSGGTAALGCLVKDYFPEPVTVSWNSGALTSGVHTFPAVLQSSGLYSLSSVVTVPSSSLGTQTYICNVNHKPSNTKVDKRVEPKSCDKTHTCPPCPAPEFEGGPSVFLFPPKPKDTLMISRTPEVTCVVVDVSHEDPEVKFNWYVDGVEVHNAKTKPREEQYNSTYRVVSVLTVLHQDWLNGKEYKCKVSNKALPASIEKTISKAKGQPREPQVCTLPPSREEMTKNQVSLSCAVKGFYPSDIAVEWESNGQPENNYKTTPPVLDSDGSFFLVSKLTVDKSRWQQGNVFSCSVMHEALHNRFTQKSLSLSPGK
chain 3: DIQLTQSPSTLSASVGDRVTITCRASESLDNYGIRFLTWFQQKPGKAPKLLMYAASNQGSGVPSRFSGSGSGTEFTLTISSLQPDDFATYYCQQTKEVPWSFGQGTKVEVKRTVAAPSVFIFPPSDEQLKSGTASVVCLLNNFYPREAKVQWKVDNALQSGNSQESVTEQDSKDSTYSLSSTLTLSKADYEKHKVYACEVTHQGLSSPVTKSFNRGEC
RTCC Assay, Donor 0, EC50 [3]: 5.36 nM
RTCC Assay, Donor 0, gMFI max [3]: 21000 gMFI
RTCC Assay, Donor 1, EC50 [3]: 0.819 nM
RTCC Assay, Donor 1, gMFI max [3]: 78100 gMFI
RTCC Assay, Donor 2, EC50 [3]: 2.43 nM
RTCC Assay, Donor 2, gMFI max [3]: 54100 gMFI
RTCC Assay, Donor 3, EC50 [3]: 4.9 nM
RTCC Assay, Donor 3, gMFI max [3]: 66200 gMFI
Cytokine Release Assay (IFNγ), Donor 0, gMFI max [4]: 465000 gMFI
Cytokine Release Assay (IFNγ), Donor 1, gMFI max [4]: 4820 gMFI
Cytokine Release Assay (IFNγ), Donor 2, EC50 [4]: 49.1 nM
Cytokine Release Assay (IFNγ), Donor 2, gMFI max [4]: 12200 gMFI
Cytokine Release Assay (IFNγ), Donor 3, gMFI max [4]: 82800 gMFI
